In PMC6800506 one finds integrated FRET density (IFD) data, which are given here for one substance.

In this assay the target is tau RD containing the disease-associated P301S substitution fused to either CFP or YFP (human) (UniProt P10636). Nature of the assay: FRET or BRET; HEK293T tau biosensor cells with up to 200 nM freshly prepared, oligomeric or fibrillar Aβ, no tau seeds, no transfection reagent; FRET by flow cytometry after 48 h and after 2 weeks. On the technique in general: In BRET a luciferase serves as donor, and the signal depends on an acceptor being close.

With “tau RD containing the disease-associated P301S substitution fused to either CFP or YFP (from UniProt P10636-8 244-372) (domain or fragment)”, the integrated FRET density (IFD) was < 10.
